Source: article PMC6586375

Biological target: His-tagged BspC labelled with the Monolith His-Tag Labeling Kit RED-tris-NTA 2nd Generation (Streptococcus agalactiae)
Test: MST; labelled His-tagged BspC constant at 10 nM, vimentin titrated 1:1 in 16 steps from 20 μM to 0 μM; standard capillaries, Monolith NT.115 Pico, 20% excitation power, 40% MST power; three independent experiments

**Q.** For “vimentin purchased from Novus Biologicals (from UniProt P08670 1-466) (natural protein)”, which Kd is on record?
**A.** The Kd was 3.39 µM.
